Test results reported in paper PMC4808055 (Nature cell biology, 2015).

Target: T1, yeast Twinfilin (Twf1), full-length (1-332) (yeast, UniProt P53250 1-332)
T1 sequence: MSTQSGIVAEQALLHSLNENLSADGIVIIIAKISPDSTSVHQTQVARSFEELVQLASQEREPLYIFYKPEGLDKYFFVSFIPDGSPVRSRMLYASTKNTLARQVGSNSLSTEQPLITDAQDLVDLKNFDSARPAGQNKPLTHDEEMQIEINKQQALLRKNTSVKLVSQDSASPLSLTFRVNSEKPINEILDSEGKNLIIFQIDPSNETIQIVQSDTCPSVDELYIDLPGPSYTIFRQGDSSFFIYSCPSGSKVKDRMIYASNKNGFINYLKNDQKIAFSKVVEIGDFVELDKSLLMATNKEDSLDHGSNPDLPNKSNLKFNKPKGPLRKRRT
Experiment: negative-stain electron microscopy

B1: N-Srv2 (1-259) (domain or fragment)
chain: MPDSKYTMQGYNLVKLLKRLEEATARLEDVTIYQEGYIQNKLEASKNNKPSDSGADANTTNEPSAENAPEVEQDPKCITAFQSYIGENIDPLVELSGKIDTVVLDALQLLKGGFQSQLTFLRAAVRSRKPDYSSQTFADSLRPINENIIKLGQLKESNRQSKYFAYLSALSEGAPLFSWVAVDTPVSMVTDFKDAAQFWTNRILKEYRESDPNAVEWVKKFLASFDNLKAYIKEYHTTGVSWKKDGMDFADAMAQSTKN
binding result: binds
